Reference: US20250163149A1, “ANTI-RAGE ANTIBODY” (Swansea University, priority 2022, published 2025)

Assays:
RAGE = RAGE (Homo sapiens, UniProt Q15109); assay: Western blot on protein extracts from human healthy tissues; settings: brain, breast, kidney, liver, lung, ovary, pancreas, spleen and uterus
RAGE synthetic peptide = molecular target: T1, RAGE synthetic peptide (Homo sapiens, UniProt Q15109); assay: Surface plasmon resonance binding kinetics (Biacore T200), synthetic peptide analyte; settings: chimeric antibodies and AB11451
T1 construct: purchased Biorad; host or cells: chemical synthesis
Method: For on-rate and off-rate screening, Biacore™ T200 system (Cytiva, Uppsala, Sweden) was used to perform SPR analysis with 1×HBS-EP+ buffer (0.01M Hepes, 0.15M NaCl, 0.003M ethylenediaminetetraacetic acid, and 0.05% Surfactant P20, pH 7.4) (BR100669) used as sample and running buffer. The analysis temperature at the sensor chip surface and within the compartment was set to 25° C. Firstly, pH scouting with 10 mM sodium acetate buffer 4.0 (BR-1003-49), 10 mM sodium acetate buffer 4.5 (BR-1003-50), 10 mM sodium acetate buffer 5.0 (BR-1003-51) and 10 mM sodium acetate buffer 5.5 (BR-1003-52) was performed to identify the optimal pH required for ligand (α-RAGE antibodies) immobilization. This was followed by diluting the ligand with the appropriate Acetate buffer to at least 10 μg/mL. The ligand immobilization on the surface Series S Sensor Chip CM5 (29-1496-03, Cytiva) was performed using the Amine Coupling Kit (BR100050, Cytiva) containing 1-Etyhyl-3-(3-dimethylaminopropyl)-carbodiimide hydrochloride (EDC), N-Hydroxysuccinimide (NHS) and 1.0M ethanolamine-HcL PH 8.5 in accordance with the manufacturer's instructions. For each experimental run, the ligand was immobilized in flow cells 2 or 4 while flow cells 1 or 3 were left unmodified. Flow cells 2 and 4 were used as active flow cells while flow cells 1 and 3 were used as reference flow cells. […]

SKOV3 cells = assay: Internalisation assay on SKOV3 cells; type: cell-based, human; settings: for uptake (internalisation), secondary antibody detection: 4 h or 24 h at 37° C.
Method: To screen internalization capacity and traffic to lysosomes of α-RAGE antibodies, all the primary antibodies used in the screening were conjugated to pHAb Amine Reactive Dye following manufacturer's instructions (Promega, UK, Cat. No. G983). This type of dye emits fluorescence when traffics to acidic environments (late endosome and lysosome). For this purpose, 1.5×10^4 SKOV3 cells/well were seeded in 8-well chamber slides (Ibidi) in 300 μl of stripped medium and cultured for 24 h in a humidified, 5% CO2 in air atmosphere incubator at 37° C. After culture, cells were washed in pre-warmed (37° C.) Dulbecco's phosphate buffered saline (DPBS) and slides placed on ice. Cells were treated with control medium or medium containing one of the α-RAGE antibodies conjugated to pH-dye at 10 μg/ml, and the 8-well chamber slides were incubated on ice for 30 minutes. Slides were then transferred to the incubator at 37° C. for 4 h or 24 h. After internalization time, cells were washed in DPBS, fixed in 4% paraformaldehyde for 20 min and permeabilized with 0.1% Triton X-100 (Sigma) for 10 minutes at 4° C. Cells were washed with PBS extensively between all steps, counterstained before imaging with Hoechst (Life Technologies™) and imaged using a LSM710 confocal fluorescence microscopy system (Zeiss, UK). Unconjugated α-RAGE antibodies were also used in the internalisation assay. In this case were visualized using Alexa-fluorophore secondary antibodies as described in the immunofluorescence method.

RAGE, sequence (Q15109 23-404): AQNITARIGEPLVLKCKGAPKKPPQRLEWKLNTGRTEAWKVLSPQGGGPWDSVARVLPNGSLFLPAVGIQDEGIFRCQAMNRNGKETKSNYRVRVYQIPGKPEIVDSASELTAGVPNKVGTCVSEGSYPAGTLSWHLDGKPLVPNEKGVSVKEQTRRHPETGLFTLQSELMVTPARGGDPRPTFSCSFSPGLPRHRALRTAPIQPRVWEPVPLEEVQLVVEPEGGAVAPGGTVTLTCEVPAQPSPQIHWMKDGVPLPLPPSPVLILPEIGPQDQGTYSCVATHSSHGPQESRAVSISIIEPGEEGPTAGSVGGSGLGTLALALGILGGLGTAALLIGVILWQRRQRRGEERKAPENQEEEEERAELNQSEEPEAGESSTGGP
T1 sequence (Q15109 39-65 limits assumed): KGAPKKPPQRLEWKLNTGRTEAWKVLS

RAGE expression detected in human healthy tissues (RAGE): absent or very low expression | binding affinity to the new synthetic peptides (RAGE synthetic peptide): the affinity is weak
B1: hHA9: chimeric humanised format of anti-RAGE antibody clone HA9 (antibody, V domains shown)
VH: EVKLVETGGGLVQPGRPMKLSCVASGFTLSDHWMNWVRQSPEKGLEWVAQIRNRPYKFEKYYSDSVKGRFTISRDDSKNSVYLQMNNLRAEDMGIYYCSSYRYGLAYWGQGTLVTVST
VL: DNLLTQSPAILSVSPGERVSFSCRASQTIDTRIHWYQQRKNGSPRLLIRYISESLSGIPSRFSGSGSGTEFTLTINSVESEDIADYYCQQTESWPITFGSGTKLEIK
uptake (internalisation), secondary antibody detection (SKOV3 cells; compared with other clones and AB11451, listed as chimeric HA9): highest uptake | uptake (internalisation), secondary antibody detection (SKOV3 cells; compared with other clones and AB11451, listed as chimeric-HA9): better uptake | uptake of pH-dye conjugated antibody (SKOV3 cells; pHAb dye conjugate 10 μg/ml, 4 h or 24 h): highest uptake and traffics efficiently to acidic endosomes
